Experimental data as given in the supplement of paper PMC12764529.
± gives the half width of the 95% confidence interval.

test: folding stability dG unfold (combined trypsin and chymotrypsin); higher = more stable
Method in brief: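 Digests were run with trypsin and chymotrypsin at 11 concentrations in threefold dilutions, plus a no-protease condition, on designed mini-proteins in a PA-tagged cDNA display construct. The mini-proteins were under 80 residues, had no cysteine, and were kept only when AlphaFold2 dimer inter-PAE was above 15. After sequencing, Bayesian fitting of the counts gave K50, from which unfolding free energy was derived against a sequence-predicted unfolded-state K50 and a shared folded-state K50, per protease or combined.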

Row | Sequence | folding stability dG unfold [kcal/mol]
1 | SGMPPVSVSSIEPVSVSPDGTSRTFRAPLTTPSGEPVTYTGPVSEILKRVEEEGWGPTASAPGGLVEVRDSA [r9_1078_JUSTAS] | -0.583 ± 0.1
2 | SAMIVTEKEDPATNTTLVTTTEIYPDSITVTTTTITKSGEILTESPSTTTIPLGSPLGPENKAKNIALSSAG [r14_930_JUSTAS] | < -1
3 | SAGGTIEEIRDQLKNMPPGYHVDLKIPNGRSHSFGSLEDIEDLPITNPNGRKIEITEVQPMPPPDEQSAGGS [r16_680_TrROS] | -0.703 ± 0.68
4 | SAGGSAGGSAMKITINVSPDEPGVTIEEAKKRLAPHPVEKVTQTPLPSNSLVVTVDVSPEASAGGSAGGSAG [r3_335_JUSTAS] | < -1
5 | SSAEEIARRLAEELNLDRVEVRVERLRLEPAEAPEEVRVVRPAPPPPPVTEEERRRRPEERRRRLSEEELSA [r9_724_TrROS_Hall] | < -1
6 | SAGGSAGGSAGGIYIPLEDLEKNGLGFEELVEKLGVDVEIEVLETEPGKPVAKIRPKLGSAGGSAGGSAGGS [r10_855_TrMRF] | 0.435 ± 0.093
7 | SAGGEPRLGRVLLDIDIAVDPERAEREEDREEALERALEIAERAEARLRELDPDVPVVVNIRLLDVGSAGGS [r8_183_TrMRF] | 0.31 ± 0.17
8 | SAGGSAGGSAGIKKQRNPDGQERETIEIRTKNQPIPITFPPDDNADDLANNFGLPADDIRSAGGSAGGSAGG [r11_1039_TrROS] | 0.28 ± 0.079
9 | SAGGSAGGSAKTVEIPLKDLKPDKDGKYNYDEIQDQIKEKFPPNGIDKVDIDTPRQIWDQFRSAGGSAGGSA [r18_72_TrROS] | -0.329 ± 0.42
10 | SAGGSAGGSAGVKIRMRGPNGSESKIPVPPDAIQDKFPPGDPIRIPIHRHNNNFHMDIEPVSAGGSAGGSAG [r3_86_TrROS] | -0.0674 ± 0.086
11 | SAGGSAGGSALPPGEPVEFPWRIKMGGEEHDVKRTVYRDPDGNVKLNIEIPMPPGNFEIEPVSAGGSAGGSA [r18_428_TrROS] | -0.451 ± 0.4
12 | SGMTPVSVSRKFTSTFPNGTPVSDPGGLVVLVPEPPPPPYVHLSPEEVEAARAAAAAAGSPLTEADIRASSA [r9_487_JUSTAS] | -0.642 ± 0.42
13 | SAGGSVLVTLTNPADGTPVTLPTPAEEAEAILASGDTAALEARHPGRPVAAVTVDPVSPRPPVPPGLASAGG [r13_629_JUSTAS] | -0.651 ± 0.38
14 | SAGGSAGGSAGGVRPNPNGQYEVTVTIRNPGGGNKREKTINATPDEIEELQDQGFEIEPSAGGSAGGSAGGS [r10_749_TrROS] | < -1
15 | SAGGSALTIKVKDPEDIKDLEIQVYLPDGRPMLMKIEVQRDEGPPYVKIKAENPGNGKKRKETFPFSAGGSA [r15_1006_TrROS] | -0.243 ± 0.62
16 | SAGGSAGGSAGGPIKIKHNDGVEITIPADNVRSVDTNPGPGYIKITFPGNGQEFQIPIDSAGGSAGGSAGGS [r10_200_TrROS] | -0.306 ± 0.12
17 | SAGGSAGGSAGGMKITLKVKKPDGTTTTITVDIDESKIEEIKEEIAPKGYEVEEAEIELESAGGSAGGSAGG [r7_159_JUSTAS] | 0.00742 ± 0.36
18 | SAGGSAGGSAGGMTETVTLTEVGVTTKTAPLPEGPLTTTPTVTVDRVITLPPSSPAALALSAGGSAGGSAGG [r7_889_JUSTAS] | < -1
19 | SAGGSAGGSAGGSSSMTSEKVTEKTEFDKETGKKYKIITQRISPSSVGNSSLKTEIKLESAGGSAGGSAGGS [r10_535_JUSTAS] | -0.735 ± 0.61
20 | SAGGSARVVTAVARHPNSTEATLTVTDSGAAGGTSEITFASPEDLLAAIRNLPASVASVSVRPLLPSAGGSA [r15_589_TrMRF] | 0.422 ± 0.092
21 | SAGGSAGGSAGMTSTVTEVRPGSDSWTVTVTYSENSSTKTQTLTVPAGPTVRSGLPSVVSSAGGSAGGSAGG [r11_921_JUSTAS] | -0.435 ± 0.23
22 | SAGGPKVVKGKKVEKVELEVGKLPDGVELVKVKVRSKEVDKEFTFTFEPGQDLGEFGKATGFDIGVESAGGS [r16_676_TrMRF] | 0.14 ± 0.17
23 | SAGSVTVEVFGPGRLLATYTLDDTTTTVAVPPEPVRVRIRSPGDDAEATADADPATGVVTVTVPADLGLSAG [r5_469_JUSTAS] | 0.165 ± 0.064
24 | SAGGKKTVEIPIWMPYDDAKNIAKEAVEEAAASNDNVTVTIEIWQWEPDPNGKPEWQPIGKAEIKVPPSAGG [r13_974_TrROS] | -0.43 ± 0.19
25 | SMDVVTEVTVKLPYRDASHHHHLNIKVTRTISSKDPSLSPEALPPEVLAEEAKKEAIEELKKKGIPEEFLSA [r9_516_JUSTAS] | < -1
